Assay results as given in PMC1249579, “RLIP76, a non-ABC transporter, and drug resistance in epilepsy” (BMC Neuroscience, 2005).

How the values were obtained:
Assay in all cases: purified protein
Assay type in all cases: biochemical, Homo sapiens
purified protein [1] = substrate: O=C1NC(=O)C(c2ccccc2)(c2ccccc2)N1; settings: ATP held constant, ATP-dependent transport, MgCl2, pH 7.4, labelled compound
purified protein [2] = substrate: Nc1ncnc2c1ncn2[C@@H]1O[C@H](COP(=O)(O)OP(=O)(O)OP(=O)(O)O)[C@@H](O)[C@H]1O; settings: co-substrate phenytoin held constant, MgCl2, pH 7.4
purified protein [3] = substrate: NC(=O)N1c2ccccc2C=Cc2ccccc21; settings: ATP held constant, ATP-dependent transport, MgCl2, pH 7.4, labelled compound

B1: RLIP76 (Homo sapiens) (protein)
chain: MTECFLPPTSSPSEHRRVEHGSGLTRTPSSEEISPTKFPGLYRTGEPSPPHDILHEPPDVVSDDEKDHGKKKGKFKKKEKRTEGYAAFQEDSSGDEAESPSKMKRSKGIHVFKKPSFSKKKEKDFKIKEKPKEEKHKEEKHKEEKHKEKKSKDLTAADVVKQWKEKKKKKKPIQEPEVPQIDVPNLKPIFGIPLADAVERTMMYDGIRLPAVFRECIDYVEKYGMKCEGIYRVSGIKSKVDELKAAYDREESTNLEDYEPNTVASLLKQYLRDLPENLLTKELMPRFEEACGRTTETEKVQEFQRLLKELPECNYLLISWLIVHMDHVIAKELETKMNIQNISIVLSPTVQISNRVLYVFFTHVQELFGNVVLKQVMKPLRWSNMATMPTLPETQAGIKEEIRRQEFLLNCLHRDLQGGIKDLSKEERLWEVQRILTALKRKLREAKRQECETKIAQEIASLSKEDVSKEEMNENEEVINILLAQENEILTEQEELLAMEQFLRRQIASEKEEIERLRAEIAEIQSRQQHGRSETEEYSSESESESEDEEELQIILEDLQRQNEELEIKNNHLNQAIHEEREAIIELRVQLRLLQMQRAKAEQQAQEDEEPEWRGGAVQPPRDGVLEPKAAKEQPKAGKEPAKPSPSRDRKETSI
notes: pET30a(+), E. coli BL21(DE3); reconstituted in asolectin-cholesterol liposomes
Purified protein [1]
  Km: 0.43 µM
Purified protein [2]
  Km: 1330 µM
Purified protein [3]
  Km: 0.25 µM
